Laboratory results published in patent publication US20250313644A1.

How the values were obtained:
[1] = molecular target: human TL1A (HuTL1A) (human) (UniProt O95150)
[2] = molecular target: human TL1A (HuTL1A) (human) (UniProt O95150); remark: listed apart in the source
FASL [3] = molecular target: FASL (UniProt P48023); assay: ELISA, coated FASL, Ab 25 nM
LT-α [4] = molecular target: T1, LT-α (UniProt P01374); assay: ELISA, coated LT-α, Ab 25 nM
T1 sequence (looked up): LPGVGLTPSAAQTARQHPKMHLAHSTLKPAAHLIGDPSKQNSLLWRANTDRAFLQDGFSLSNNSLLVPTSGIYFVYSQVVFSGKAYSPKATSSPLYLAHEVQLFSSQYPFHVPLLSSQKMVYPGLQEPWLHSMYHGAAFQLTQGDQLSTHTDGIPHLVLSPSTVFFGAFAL

FASL [5] = molecular target: FASL (UniProt P48023); assay: ELISA, coated FASL, Ab 100 nM
LIGHT [6] = molecular target: LIGHT (UniProt O43557); assay: ELISA, coated LIGHT, Ab 25 nM
LT-α [7] = molecular target: T1, LT-α; assay: ELISA, coated LT-α, Ab 100 nM
TNFα [8] = molecular target: TNFα (UniProt P01375); assay: ELISA, coated TNF-α, Ab 25 nM
FASL [9] = molecular target: FASL (UniProt P48023); assay: ELISA, coated FASL, Ab 6.25 nM
LIGHT [10] = molecular target: LIGHT (UniProt O43557); assay: ELISA, coated LIGHT, Ab 100 nM
LT-α [11] = molecular target: T1, LT-α; assay: ELISA, coated LT-α, Ab 6.25 nM
TNFα [12] = molecular target: TNFα (UniProt P01375); assay: ELISA, coated TNF-α, Ab 100 nM
FASL [13] = molecular target: FASL (UniProt P48023); assay: ELISA, coated FASL, Ab 0.391 nM
FASL [14] = molecular target: FASL (UniProt P48023); assay: ELISA, coated FASL, Ab 1.563 nM
LIGHT [15] = molecular target: LIGHT (UniProt O43557); assay: ELISA, coated LIGHT, Ab 6.25 nM
LT-α [16] = molecular target: T1, LT-α; assay: ELISA, coated LT-α, Ab 0.391 nM
LT-α [17] = molecular target: T1, LT-α; assay: ELISA, coated LT-α, Ab 1.563 nM
TNFα [18] = molecular target: TNFα (UniProt P01375); assay: ELISA, coated TNF-α, Ab 6.25 nM
LIGHT [19] = molecular target: LIGHT (UniProt O43557); assay: ELISA, coated LIGHT, Ab 0.391 nM
LIGHT [20] = molecular target: LIGHT (UniProt O43557); assay: ELISA, coated LIGHT, Ab 1.563 nM
TNFα [21] = molecular target: TNFα (UniProt P01375); assay: ELISA, coated TNF-α, Ab 0.391 nM
TNFα [22] = molecular target: TNFα (UniProt P01375); assay: ELISA, coated TNF-α, Ab 1.563 nM
FASL [23] = molecular target: FASL (UniProt P48023); assay: ELISA, coated FASL, Ab 0.000 nM (blank)
LT-α [24] = molecular target: T1, LT-α; assay: ELISA, coated LT-α, Ab 0.000 nM (blank)
LIGHT [25] = molecular target: LIGHT (UniProt O43557); assay: ELISA, coated LIGHT, Ab 0.000 nM (blank)
TNFα [26] = molecular target: TNFα (UniProt P01375); assay: ELISA, coated TNF-α, Ab 0.000 nM (blank)
[27] = molecular target: human TL1A (HuTL1A) (human) (UniProt O95150); assay: DLS, antigen and antibody mixed in equal moles
[28] = molecular target: human TL1A (HuTL1A) (human) (UniProt O95150); assay: ELISA: biotin-HuTL1A on streptavidin plate, antibody diluted at pH 5.8, HRP-anti-human Fc, OD450
[29] = molecular target: human TL1A (HuTL1A) (human) (UniProt O95150); assay: ELISA: biotin-HuTL1A on streptavidin plate, antibody diluted at pH 7.4, HRP-anti-human Fc, OD450
[30] = molecular target: human TL1A (HuTL1A) (human) (UniProt O95150); assay: competition ELISA: antibody dilution mixed 1:1 with Biotin-TL1A, added to coated DcR3 (1 µg/mL), Streptavidin-HRP, OD450; blocked partner of TL1A: DcR3

Sequence of BM1 antibody (Pfizer/Roivant TL1A monoclonal antibody RVT-3101) (VH): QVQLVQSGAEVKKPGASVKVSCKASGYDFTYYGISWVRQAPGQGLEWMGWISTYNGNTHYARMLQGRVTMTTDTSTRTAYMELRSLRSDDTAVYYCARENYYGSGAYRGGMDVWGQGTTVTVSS
Sequence of BM1 antibody (Pfizer/Roivant TL1A monoclonal antibody RVT-3101) (VL): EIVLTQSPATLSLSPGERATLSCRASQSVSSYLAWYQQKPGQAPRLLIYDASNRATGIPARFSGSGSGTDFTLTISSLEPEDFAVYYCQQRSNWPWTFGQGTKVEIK
Sequence of FASL (P48023 134-281 limits assumed): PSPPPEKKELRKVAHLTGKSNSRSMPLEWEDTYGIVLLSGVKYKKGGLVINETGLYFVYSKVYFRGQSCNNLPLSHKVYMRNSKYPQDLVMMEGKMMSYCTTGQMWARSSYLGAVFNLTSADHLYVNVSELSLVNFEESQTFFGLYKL
Sequence of LIGHT (O43557 74-240 limits assumed): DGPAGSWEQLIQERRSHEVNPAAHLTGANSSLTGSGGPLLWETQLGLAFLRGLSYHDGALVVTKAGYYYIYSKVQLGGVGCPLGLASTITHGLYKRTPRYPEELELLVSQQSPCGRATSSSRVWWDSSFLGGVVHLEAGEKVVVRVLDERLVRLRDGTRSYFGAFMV
Sequence of TNFα (P01375 77-233 limits assumed): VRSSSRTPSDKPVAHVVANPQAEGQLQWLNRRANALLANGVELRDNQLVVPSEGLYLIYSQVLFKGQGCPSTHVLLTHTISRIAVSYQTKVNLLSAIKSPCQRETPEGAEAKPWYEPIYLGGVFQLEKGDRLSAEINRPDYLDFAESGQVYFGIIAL
Sequence of human TL1A (HuTL1A) (human) (O95150 57-251 limits assumed): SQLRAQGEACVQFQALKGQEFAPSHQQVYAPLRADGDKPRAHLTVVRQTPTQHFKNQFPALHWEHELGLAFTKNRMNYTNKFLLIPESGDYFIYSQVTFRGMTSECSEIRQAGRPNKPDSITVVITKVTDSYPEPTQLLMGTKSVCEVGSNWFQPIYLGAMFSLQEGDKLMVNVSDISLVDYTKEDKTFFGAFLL

“BM1 antibody (Pfizer/Roivant TL1A monoclonal antibody RVT-3101)” showed an IC50 (read off the curve); SEAP reporter in HEK293T/DR3-NFκB cells with soluble TL1A, OD655 [1] of 2 nM, an IC50 (read off the curve); IFN-γ of human T cells with IL-12, IL-18 and exogenous human TL1A [2] of 0.5 nM and an OD450 nm (FASL [3]) of 0.0609. The OD450 nm (LT-α [4]) was 0.0845, the OD450 nm (FASL [5]) was 0.0855 and the OD450 nm (LIGHT [6]) was 0.0916. The OD450 nm (LT-α [7]) was 0.0823, the OD450 nm (TNFα [8]) was 0.0601 and the OD450 nm (FASL [9]) was 0.0513. For the same substance, the OD450 nm (LIGHT [10]) was 0.0996, the OD450 nm (LT-α [11]) was 0.0909 and the OD450 nm (TNFα [12]) was 0.0815. It also gave an OD450 nm (FASL [13]) of 0.051, an OD450 nm (FASL [14]) of 0.0518 and an OD450 nm (LIGHT [15]) of 0.0903. It also gave an OD450 nm (LT-α [16]) of 0.0978, an OD450 nm (LT-α [17]) of 0.095 and an OD450 nm (TNFα [18]) of 0.0511. The OD450 nm (LIGHT [19]) was 0.0834, the OD450 nm (LIGHT [20]) was 0.0887 and the OD450 nm (TNFα [21]) was 0.0539. For the same substance, the OD450 nm (TNFα [22]) was 0.0523, the OD450 nm (FASL [23]) was 0.0544 and the OD450 nm (LT-α [24]) was 0.0972. The OD450 nm (LIGHT [25]) was 0.0644, the OD450 nm (TNFα [26]) was 0.0666 and the Ave Z-dia (nm) of the antigen-antibody complex [27] was 85.7 nm. The EC50 (read off the curve) [28] was 0.1 nM, the EC50 (read off the curve) [29] was 0.1 nM and the IC50 (read off the curve) [30] was 0.2 µg/mL.
